For 20 sequences, protein production results are on record in a protein production outcome set (Wang et al. 2014).

The nature of the data set: label from the status in PepcDB records.

For the sequence “MDEVNVIARITGVSRVRTFERDGREGRFISLDIMDATGSTTYTLWNNDVNLVEELGLKEGDAVKILWAQPRRRDDKVTLTHTSLTRVVPGLEHHHHHH”, the protein production result is on record as “failed”.

Regarding “MDFAHLDQQLRDSVLDLKLSNEERDELRQLGSELGQDQVRYMRNRAFDLVRELALADSVNVLPALKWLEQVIKTLDANSAPVRDMASAHFSPGEDCRRKIRDLCRQARISVDICVFTISDDQLSDEIRACHQRGVAVRVISDSEKQFDVGSDIAALREAGVPVRIDDTPFHMHHKFAVFDGRTLLNGSFNWTRSATTGNEENLLVIDHPQLVASYLKEFNELWSRYAPR”, the protein production entry was “failed”.

As for “MDFESNGAMMEYCKSTGRTYCAFSIQQSSKLLGTVVLELFTDIAPATCANFIKYIKDGYQGTPLHRIVPNGWVQGGDIVDGSGKGDPGFVLPDETYSVKHDAPGVLGMATGGQPHTANTQFYISLSPLPFLDGKRVAFGRVLNKQSLENLLALQTLPTFQNERPVPDVVIASCHVIYNPNS”, the protein production entry is given as “failed”.

In the case of “MDGAQPKTNFFERLIARLAREPDSAEDVLNLLRQAHEQEVFDADTLTRLEKVLDFAELEVRDAMITRSRMNVLKENDSIERITAYVIDTAHSRFPVIGEDKDEVLGILHAKDLLKYMFNPEQFHLKSVLRPAVFVPEGKSLTALLKEFREQRNHMAIVIDEYGGTSGLVTFEDIIEQIVGDIEDEFDEDESADNIHSVSAERWRIHAATEIEDINAFFGTEYGSEEADTIGGLVIQELGHLPVRGEKVLIGGLQFTVARADNRRLHTLMATRVK”, the protein production result was “failed”.

“MDGASRENPGLAAAGGAVRDGNENWVGVFALNIEICSAPLAELWGLYYGLHIVWEQGITRLELEVDSKIVVGFLQTGIPDSHPLSFLLRLCYGFISRDWLVRISHVYREVNRLADGLANYAFSLPLGLYVFNSVPDSIASFVLEDARMLEEYRMKFWLLEDLGLRHCGNVKANGFHRVSAYPREKSHGRHRLYVLHY”: the protein production result is “failed”.

In the case of “MDGDGSSFEQFIMPPSALDRLASLHIEYPMLFQLSNVSVEKTSHCGVLEFTADEGLVYLPYWMMQNMSLEEGDVMQVKNISLVKGTYIKLQPHTQDFLDISNPKAILETTLRSYSCLTTGDTIMVPYNNKQYYINVVEAKPSSAVSIIETDCEVDFAPPLDYKEPEKPQKLTPSNKRPLQVKEEEEPASKVPKFTPFTGSGKRLDGKAQTQTEPEDTKQQEKPTENGKDDEKLSVTTPRQISGKLVFGSNSKSAAKETAKVDDPKNIVQESSTKSDEAKFKVFTGKKYSLNG”, the protein production result is reported as “failed”.

As for “MDGRMDATTRMTLSVGALMFRMIWFPAPHWTHAARMTASTFRRYGFGLLSLVLLVLPSRLAAQDYEVPTVTDTYALQNARVVQAPGQVLESATVVVRDGVIDAVGPDAEVPYDARTIEADSLVVYAGFIDGLSHAGVEMPEGEDTDVEDPGNPPPDAAGIQPDRSVRPFLSPDESALQSLRKAGFTLGHVAPEGQMLPGASAHVFYGGETANDMVLEAGPTLFAQLQTADGYVYPATGMAVIAQMRQLYREAERRQQLEAAYERDPTGRPQPPQDPQHSALFSVLDGEQPLAFYADEALSLHRILALHQELDFPLVLAGLGESHELVDALQAVDAPLFLTLDLPEEPTRSTGQDTTTADTTSTPSRYYNPDLQVPSHETVAEEEENLELRHAMERQDYLETAATLHDAGLEFGFTTREADPGDVRGNLRTMIDQGLPEQTALAALTTRPAAQLGLDDRLGTVEAGKIANLVVTDGSYFAEDTKVTHVFVDGRLYDYSADGSDEGEVSGDVSAVLGTWSYTLDTPQGELSGEVTIEGDQSGLDGTFVGPQGDEQPLQSVSFDGTTLSFTVDSPQGGSVSVSVTVEGDTFDGSASTSGGSFPISGERTSGPNATQK”, the protein production result is given as “failed”.

Take “MDGTEIAVSPRSLHSELMCPICLDMLKNTMTTKECLHRFCSDCIVTALRSGNKECPTCRKKLVSKRSLRPDPNFDALISKIYPSREEYEAHQDRVLIRLSRLHNQQALSSSIEEGLRMQAMHRAQRVRRPIPGSDQTTTMSGGEGEPGEGEGDGEDVSSDSAPDSAPGPAPKRPRGGGAGGSSVGTGGGGTGGVGGGAGSEDSGDRGGTLGGGTLGPPSPPGAPSPPEPGGEIELVFRPHPLLVEKGEYCQTRYVKTTGNATVDHLSKYLALRIALERRQQQEAGEPGGPGGGASDTGGPDGCGGEGGGAGGGDGPEEPALPSLEGVSEKQYTIYIAPGGGAFTTLNGSLTLELVNEKFWKVSRPLELCYAPTKDPK”: the protein production result is “failed”.

As for “MDGTVTPSPITTAMPPVSALDAGTPTLPPEAPLAMPEQNLREGSLQVRHQRTSPPGIGVRRFYLIGGTFATTAIAVWVMLSVLWPDGISVLEGCLLGLFVLLFAWIAMSFASAVAGFVTVVARAGRKLGIDPEQPLPTLRSRTALLMPTYNEDPRRLLAGLQAIYESVAETGQLEHFDFFVLSDTTREHIGRAEELVYNALCDRVGGHGRIFYRRRADNAARKAGNVADWVRRFGGSYPQMLILDADSVMTGDTIVRLVAGMENNPDVGLIQTLPAVVNGQTLFARMQQFGGRVYGPIIAFGVAWWHGAESNYWGHNAIIRTQAFADHAGLPSLRGRKPFGGHVLSHDFVEAALMRRGGWAMHMVPYLQGSYEEGPPTLTDLLIRDRRWCQGNLQHAKVVGAKGLHWISRMHMLIGIGHYFTAPMWGLLMLIGIGIPLAGGDIDLAGDLPFSPARYWHGSSQGNAIWIFVCTMFVLLAPKLLGYIALLLNPRELRACGGAFRAAVSILLETVLAALMAPVVMYLQSRGVFEVLAGKDSGWDAQVRDDGKLSWPALLRSYGGLTVFGLFMGAVAYAVSPALAAWMGPVIVGMALSIPVVALTSLRRTGMALRRAGIFCIPEELDPPKVLVRASELRRAAALEPSLI”, the protein production entry is recorded as “failed”.

For “MDGVFRLLLGRFIQRGTIIFTTAGGTTFTCGDGTGEQVHARLTSPLAQRRLLLDPELALGEIYMDGGLVMQQGSIADLLAVAMGQPDWTPRWAKLHGLVRYWIRTLHQFNPRSRSRNNVAHHYDLDGRLYALFLDSDKQYSCAYFETPDANLDDAQLAKKRHVAAKLLTTPGQRVLDIGSGWGGLGLYLAETCGADVTGVTLSREQLQAANTRAAERGLADRARFLLQDYRDVPGPFDRIVSVGMFEHVGVDHYDTYFRRCAELLKDDGVMLLHSIGRSEGPGFTNPWIAKYIFPGGYLPALSEVLPAIERAGLLVCDIEILRLHYAETLKAWRERFLAHREEAERLYDARFVRMWEFYLAASEMSFRKQNTMVFQIQLTRRQGVVPITRDYIAAEEKRLRGMEKSRTPRLQLAGE”, the protein production entry is given as “failed”.

For “MDHVHKSTTTDEDERNSGRAIDRHNPIIKDGRRSFADDFIKLPTSAEDGEMSNKKLEIYKGRRSITGRRSTGGGGGGGAAALLKLITNDIGLARKSFSCVARPACDLIKTPVGSTRYLLGSDPDSITGSVDQDPAKTVEAEAPAGEDKTLTEKKTTCGDTDQVSCFVVSIMSGINVNKW”, the protein production entry was “failed”.

As for “MDHYLRWRKRQKLLADFGEFALSNDNLADILTEACRLVGNALGTQRANVLEIEPSKRSLFVRAGVGLDDGIVGKLRLPMREIASERFSPDGSPLDIIHDVHTEPQYDLAAFMEVAGVVALVNVPILLPGRTLYGLLQVESSEPREFSQDDVEFLRTYSTILGPVIDRLNKVRALRDAEERFRLIVEAAR”, the protein production entry is “not failed”.

Regarding “MDIAGYLSFFFASFTTLFIIIDPPGNLPIFIALTERFSDEYREKISKRATIIAFLILFITMVTGGKILDYFGVSISSLKIAGGILLFISSVDILLGGTRREAYKRRAEESIDVDSIAVFPLALPLYTGPGAITAGIVLYSQAGDVVMKLLVVLSAALVYSIVRLSHIYSAPIIRLLGRSGADIAARILAIFLAAIAVEFVFDGLAEKLVSMDL”, the protein production entry is on record as “failed”.

On to “MDIKRYCPVTDSELPADHVYFKFRSEIEAAEAYLGLAISEGIKVRETREILDIIDTVYNSLSDPESKLNDFQEKRLNFTEEDWYDIKEKANNGNRWSLYMFLARSAVDSAVYWSYRMKETEEFKEIVKEEMISKLLKAGYVILRESLGEVRL”, for which the protein production result is recorded as “not failed”.

As to “MDIKSETEQYKRKAEIEKHTKEPNKHRDEAVLQNRAGRHRDRAVIDHKSEERERESVQNVTEMSGIERSEGEWSPPVEGITDEELPSHSPMDDLGFALFASWGRKTERQRMGSPDIRIYIFNPIKKIIIMETRIRFGLEWKPSGFGS”, the protein production result was “failed”.

Turning to “MDINIGTTHKVFHVLSKIGPAWIVMMADVDVASIITGLQSGAEFGFHMIFVMLILIPPLFIVQNAAGYLGIYSGMGVGEAIRQRYGRRLALLAAIPMASTDILSYIAEYSGIAIGLYMVGVSPYISVPVVFVIHNLIVLMRRYGRIESILMIVSVGLVLFIIVSVALMKPSWHSVILTGLNPIQPYGNHDFDIMIIANLGAIIMPFMIFYQAGASVQKSLLDQDIKISRNETAIGSIVSEVLMVMIVIAGTFIGGYATEPKMLAAALLPFGTYAYYITAAGFVTAGFLALIVISLASSWGIAEALGWKLYSGRRRGMHKAQMKGLTEERSDCDRRKFIYLYMGESIPAAAIALSFSAYLLPLVIDLMIVFVLVLAPVGVLLGLLVSDQKIMNGHRLSKRYMALFWFTLAIIEIAGLYSIITSI”, the protein production result was “failed”.

In the case of “MDISLLSTTSDPEQLRALAIAMVQKVMAENAELQNRIRILEEQMKLARQQRFGKKCESLAGMQRSLFEEDVDADIAEISAHLDKLLPQTGDEEKTTTRPVRKPLPSPLPRAEKVIPPAEERCPDCDAPLHFIRDEVSEKLEYIPAQVVVNRYIRPQYSCPCCEKVFSGKMPAHILPKSAVEPSVIAQVVISKYTDHLPLYRQQHIFSRMGVELPVSTMADMVGVAGAALAPLAKLLRHELLTRDVIHADETSLRLLDTRKGGKSCSGWLWAYVSGERVSVNGAPY”, the protein production result was “failed”.

For the sequence “MDKALTNRVIILSFDCLSALDFPILQKLPHFQSLIKKGTVVEKVEPIYPSVTYPSHSTIVTGNYPNKHGVVSNTLLQPGRESPDWHWYRKSIKGTTLYDEAHKANLTTAALLWPVTGRANIDYNLPEIFPNRPWQNQVLVSLFSGSPLYQLDLNRRFGHIRNGLSQPELDDFVLASAVHTIQTKKPNVMFVHFTDLDTQRHYHGFESKETIAAIHRHDERLGQIIQALKDSDLYEESTIIALGDHSALSENKAIQLNVLFHQKGLISVNSKGNLVDWKVYCQSCDGSAYVYVKDKNDTDTIREVQLLLEELLQHKQNGIEFILHDEDAKECGADGNCLFMLEAREGYYFTENYTGDFIKEITEKDVTPSKKYTFGTHGYSPTKPNYETIFIAAGKGIKSGVTIPYMRLIDEGPTIARLLGLHLGETDGSIVEDLLQL”, the protein production entry is “failed”.

Take “MDKASRFDRMVKEKKNDELGLFEKYEETLAEIRKRIIKYKAKTVVDMGCGTGNLCGELSKEIEALGIDKSLEMLEGAKRKYKHIKFKIGSFSDKPFIGKWAGVVVTTYAFHGLNSEEKKEAIKNMIGYLKDDGRIIIGDYMFKNKAEKEECRNKLLSKKRQDLWEVIDGRYYTDLEELKDYVKSLGFKIISEHIVNFTWIVEIYK”: the protein production result is “failed”.

In the case of “MDKDLKLRPRIKRLLSPAVMQAELLGGAAWLWVLMLGPSVKINLFTCFLTLSLACICWIQHTTTVFCIWRLLGIAYMLLLATGFFYLMDGDPEINIFALPLTITLAISSALLFVKFLDYLLSAVFVWLLTWLCWQEGVYGEIGIYVWIFCVASVCIGSVLNISYIKTLRAVLSLESKFRELAETDYLTSIPNRRAFMESFDSLIKGGESGYLIMLDIDNFKLINDRHGHEIGDRILCSMAACLRATSGSHCAGRIGGEEFGVLITGGDELTACDYILRLLETVRANFDPPYNYSCSVGMVRFSAASTMSEALSMADKSMYIAKRNGKDCAYFEGQEIVSFLFDDSKLKEKYPTETLSENTYQTDTQ”, the protein production entry was “failed”.
